Test results reported in patent publication US20240010720A1 (IOMX THERAPEUTICS, published 2024).
Where two headings read alike, the source gives them in different places.

How the values were obtained:
[1] = target: T1, recombinant human IGSF11 (VSIG3) extracellular domain (ECD) (human, UniProt Q5DX21 23-241, biotinylated where captured on streptavidin); experiment: BLI, IgG1
T1 construct: also called biotinylated recombinant ECD-IGSF11; IGSF11 (ECD domain)
T1 sequence: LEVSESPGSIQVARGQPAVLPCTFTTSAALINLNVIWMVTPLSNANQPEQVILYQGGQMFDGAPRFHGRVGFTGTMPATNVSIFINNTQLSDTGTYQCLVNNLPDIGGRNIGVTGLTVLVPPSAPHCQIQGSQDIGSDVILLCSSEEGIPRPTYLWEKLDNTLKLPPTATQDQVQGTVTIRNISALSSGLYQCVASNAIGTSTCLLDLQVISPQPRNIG

[2] = target: T1, recombinant human IGSF11 (VSIG3) …; experiment: SPR, IgG1
[3] = target: T2, human IGSF11 (VSIG3) on cells (human, UniProt Q5DX21 23-431); experiment: FACS, DMS 273 cells
T2 sequence: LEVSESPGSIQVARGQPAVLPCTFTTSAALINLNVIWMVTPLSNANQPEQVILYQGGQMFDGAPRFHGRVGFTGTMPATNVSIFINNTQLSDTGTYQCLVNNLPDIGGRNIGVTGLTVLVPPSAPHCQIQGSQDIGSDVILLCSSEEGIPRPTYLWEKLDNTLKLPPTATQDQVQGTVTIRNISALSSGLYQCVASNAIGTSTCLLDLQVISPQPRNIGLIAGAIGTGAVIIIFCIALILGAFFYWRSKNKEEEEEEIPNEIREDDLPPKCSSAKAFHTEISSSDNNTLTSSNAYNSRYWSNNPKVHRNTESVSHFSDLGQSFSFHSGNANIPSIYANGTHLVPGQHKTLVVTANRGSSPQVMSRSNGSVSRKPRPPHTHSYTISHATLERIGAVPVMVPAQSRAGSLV

[4] = target: T3, His-tagged extracellular domain (ECD) of human IGSF11 (VSIG3) (human, UniProt Q5DX21 23-241); experiment: ELISA EC50 grade, IgG1
T3 construct: partly bought (SinoBiological 13094-H08H); also called IGSF11-HIS; HIS-IGSF11; not shown: HIS6 tag
T3 sequence: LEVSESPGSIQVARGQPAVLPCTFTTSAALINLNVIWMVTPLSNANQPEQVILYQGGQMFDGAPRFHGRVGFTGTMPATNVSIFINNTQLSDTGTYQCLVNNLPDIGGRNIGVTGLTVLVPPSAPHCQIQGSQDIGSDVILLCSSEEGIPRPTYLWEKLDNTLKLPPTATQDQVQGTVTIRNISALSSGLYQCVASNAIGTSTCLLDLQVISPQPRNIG

[5] = target: T2, human IGSF11 (VSIG3) on cells; experiment: FACS, HEK cells expressing IGSF11
[6] = target: T2, human IGSF11 (VSIG3) on cells; experiment: FACS, IgG1-format antibodies; DMS 273 cells (D) treated with IGSF11 siRNA (KD)
[7] = target: T2, human IGSF11 (VSIG3) on cells; experiment: FACS, IgG1-format antibodies; M579-A2-luc cells (M) treated with IGSF11 siRNA (KD)
[8] = target: T2, human IGSF11 (VSIG3) on cells; experiment: FACS, IgG1-format antibodies; DMS 273 cells (D) treated with scrambled control siRNA (SC)
[9] = target: T2, human IGSF11 (VSIG3) on cells; experiment: FACS, IgG1-format antibodies; M579-A2-luc cells (M) treated with scrambled control siRNA (SC)
[10] = target: T3, His-tagged extracellular domain (ECD) …; experiment: ELISA: IgG1-format antibody titrated on coated His-tagged IGSF11; x axis nM IgG, y axis absorbance per legend
[11] = target: T2, human IGSF11 (VSIG3) on cells; experiment: FACS, IgG1-format antibodies; CL-11 cells (C), a line that does not express IGSF11 (specificity control), IGSF11 siRNA (KD)
[12] = target: T2, human IGSF11 (VSIG3) on cells; experiment: FACS, IgG1-format antibodies; CL-11 cells (C), a line that does not express IGSF11 (specificity control), scrambled control siRNA (SC)
[13] = target: T3, His-tagged extracellular domain (ECD) …; experiment: blocking ELISA: antibody pre-incubated with His-tagged IGSF11 ECD, complexes added to immobilised VSIR-Fc; y axis % remaining IGSF11 binding to VSIR, x axis nM IgG per legend
[14] = target: T3, His-tagged extracellular domain (ECD) …; experiment: ELISA: IgG1-format antibody titrated on coated His-tagged IGSF11; x axis nM IgG, y axis absorbance per legend; remark: listed apart in the source
[15] = target: T3, His-tagged extracellular domain (ECD) …; experiment: blocking ELISA: antibody pre-incubated with His-tagged IGSF11 ECD, complexes added to immobilised VSIR-Fc; y axis % remaining IGSF11 binding to VSIR, x axis nM IgG per legend; remark: listed apart in the source
[16] = target: T4, IGSF11 ECD fused to murine-Fc (human; mouse, UniProt Q5DX21 23-241); experiment: ELISA, IgG
T4 construct: also called Fc-fusion IGSF11 ECD; full-length ECD of IGSF11; not shown: murine Fc
T4 sequence: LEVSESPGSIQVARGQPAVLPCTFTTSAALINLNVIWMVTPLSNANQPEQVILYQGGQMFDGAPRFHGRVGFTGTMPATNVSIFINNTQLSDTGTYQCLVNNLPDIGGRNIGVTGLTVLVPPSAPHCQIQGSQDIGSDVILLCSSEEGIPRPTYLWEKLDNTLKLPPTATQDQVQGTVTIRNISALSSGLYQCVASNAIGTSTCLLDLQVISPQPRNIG

[17] = target: T4, IGSF11 ECD fused to murine-Fc; experiment: ELISA, IgG; remark: listed apart in the source
Source text: Expi293 cells (ThermoFisher) were transiently transfected with DNA sequences encoding the applicable IGSF11 domain-mFc fusions according to the manufacturer's instructions, and cultured under conditions suitable to the IGSF11 domain fusion. Cell supernatants were harvested 5 days post transfection and the expressed Fc-protein purified via Protein A affinity chromatography (GE Healthcare). IGSF11 domain Fc-fusion proteins were re-buffered into PBS pH7.4. […] The surface was blocked with 2% (w/v) skim milk powder in PBST. After three wash cycles with PBST, a dilution series of IgG-format ABPs was transferred to the immobilized the Fc-fusion IGSF11 ECD or the IGSF11 domains and incubated for 1 h. After removing all unbound antibodies by 3 wash cycles with PBST, bound IgG ABPs were detected with a goat anti-human IgG antibody conjugated with horseradish peroxidase. After three wash cycles with PBST the ELISA was developed with TMB substrate.

[18] = target: T5, IgC2 domain of human IGSF11 fused to murine IgG2a Fc-region (human; mouse, UniProt Q5DX21 137-241); experiment: ELISA, IgG
T5 construct: also called IgC2-like domain mFc fusion; not shown: murine IgG2a Fc-region
T5 sequence: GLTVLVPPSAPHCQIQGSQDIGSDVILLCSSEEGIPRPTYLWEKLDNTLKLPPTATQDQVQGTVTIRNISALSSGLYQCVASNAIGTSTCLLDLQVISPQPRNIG

B1: A-012 (IgG1 format) (antibody, V domains shown)
VH: EVQLLESGGGLIQPGGSLRLSCAVSGFTVSSNYMSWVRQAPGKGLEWVSVIYSGGSTYYADSVKGRFTISRDNSKNTLYLQMNSLRAEDTAVYYCARGNPYYYGDLQVNFDYWGQGTLVTVSS
VL: QAVVTQEPSLTVSPGGTVTLTCASSTGAVTSGYYPNWFQQKPGQAPRALIYSTSNKHSWTPARFSGSLLGGKAALTLSGVQPEDEAEYYCLLYYGGAWVFGGGTKLTVL
notes: human IgG1 format
A Kd [1] of 1 to 10 nM, a Kd [2] of 250 to 500 nM and an EC50 [3] of 10 to 50 nM were found for B1 in this work. For the same binder, the EC50 [4] was 0.02 to 0.05 nM, the EC50 [5] was 10 to 50 nM and the “percentage binding (FACS heat-map)” value [6] was 4.77%. The “percentage binding (FACS heat-map)” value [7] was 2.35%, the “percentage binding (FACS heat-map)” value [8] was 75.8% and the “percentage binding (FACS heat-map)” value [9] was 65.4%. The “EC50 (read off the curve)” value [10] was roughly 0.007 nM, the “percentage binding (FACS heat-map)” value [11] was 3.93% and the “percentage binding (FACS heat-map)” value [12] was 5.11%. For the same binder, the “IC50 (read off the curve)” value [13] was roughly 2 nM.

B2: B-003 (chain-swapped IgG1) (antibody, V domains shown)
VH: EVQLLESGGGLIQPGGSLRLSCAVSGFTVSSNYMSWVRQAPGKGLEWVSVIYSGGSTYYADSVKGRFTISRDNSKNTLYLQMNSLRAEDTAVYYCARGNPYYYGDLQVNFDYWGQGTLVTVSS
VL: QAVVTQEPSLTVSPGETVTLTCASSTGAVTSGYYPNWFQQRPGQAPRALIYSTSNKDSWTPARFSGSLLGGKAALTLSGVQPEDEAEYYCLLYYGGAWVFGGGTKLTVL
notes: human IgG1 format; also called B3
For B2, the “EC50 (read off the curve)” value [10] was roughly 0.008 nM and the “IC50 (read off the curve)” value [13] was roughly 2 nM.

B3: B-005 (chain-swapped IgG1) (antibody, V domains shown)
VH: EVQLLESGGGLIQPGGSLRLSCAVSGFTVSSNYMSWVRQAPGKGLEWVSVIYSGGSTYYADSVKGRFTISRDNSKNTLYLQMNSLRAEDTAVYYCARGNPYYYGDLQVNFDYWGQGTLVTVSS
VL: QAVVTQEPSLTVSPGGTVTPTCGSSTGAVTSGNLPNWFQQKPGQAPRALIYSTSNKHSWTPARISGSLLGGKAALTLSGVQPEDEAEYYCLLYYGGAWVFGGGTKLTVL
notes: human IgG1 format; also called B5
For B3, the “EC50 (read off the curve)” value [10] was roughly 0.01 nM and the “IC50 (read off the curve)” value [13] was roughly 2 nM.

B4: B-006 (chain-swapped IgG1) (antibody, V domains shown)
VH: EVQLVESGGGLIQPGGSLRLSCAASGFTVSSNYMSWVRQAPGKGLEWVSVIYSGGSTYYADSVKGRFTISRDNSKNTLYLQMNSLRAEDTAVYYCARGNPYYYGDLQVNFDYWGQGTLVTVSS
VL: QAVVTQEPSLTVSPGETVTLTCASSTGAVTSGYYPNWFQQRPGQAPRALIYSTSNKDSWTPARFSGSLLGGKAALTLSGVQPEDEAEYYCLLYYGGAWVFGGGTKLTVL
notes: human IgG1 format; also called B6
In the case of B4, the “EC50 (read off the curve)” value [14] is reported as roughly 0.02 nM and the “IC50 (read off the curve)” value [15] is reported as roughly 5 nM.

B5: B-007 (chain-swapped IgG1) (antibody, V domains shown)
VH: EVQLVESGGGLIQPGGSLRLSCAASGFTVSSNYMSWVRQAPGKGLEWVSVIYSGGSTYYADSVKGRFTISRDNSKNTLYLQMNSLRAEDTAVYYCARGNPYYYGDLQVNFDYWGQGTLVTVSS
VL: QAVVTQEPSLTVSPGGTVTLTCASSTGAVTSAYYPNWFQQKPGQAPRALIYSTSNKHSWTPARFSGSLLGGKAALTLSGVQPEDEADYYCLLYYGGAWVFGGGTKLTVL
notes: human IgG1 format; also called B7
In the case of B5, the “EC50 (read off the curve)” value [14] is reported as roughly 0.01 nM and the “IC50 (read off the curve)” value [15] is reported as roughly 3 nM.

B6: A-011 (IgG1 format) (antibody, V domains shown)
VH: QVQLVESGGGVVQPGRSLRLSCAASGFTFSSYAMHWVRQAPGKGLEWVAVISYDGSNKYYADSVKGRFTISRDNSKNTLYLQMNSLRAEDTAVYYCAEGGALNYYGMDVWGQGTTVTVSS
VL: SSELTQDPGVSVALGQTVRITCQGDSLRHFYATWYQQKPGQAPILVIYGKNNRPSGIPDRFSGSSSEDTASLTITGAQAEDEADYYCQSRDPRNNHLIFGGGTKLIVL
notes: human IgG1 format
A Kd [1] of 10 to 20 nM, a Kd [2] of 250 to 500 nM and an EC50 [16] of less than 1 nM were found for B6 in this work. The EC50 [4] was less than 0.02 nM, the EC50 [5] was greater than 50 nM and the “percentage binding (FACS heat-map)” value [6] was 3.4%. The “percentage binding (FACS heat-map)” value [7] was 2.41%, the “percentage binding (FACS heat-map)” value [8] was 6.95% and the “percentage binding (FACS heat-map)” value [9] was 2.05%. The “percentage binding (FACS heat-map)” value [11] was 4.86% and the “percentage binding (FACS heat-map)” value [12] was 2.87%.

B7: C-014 (IgG1 format) (antibody, V domains shown)
VH: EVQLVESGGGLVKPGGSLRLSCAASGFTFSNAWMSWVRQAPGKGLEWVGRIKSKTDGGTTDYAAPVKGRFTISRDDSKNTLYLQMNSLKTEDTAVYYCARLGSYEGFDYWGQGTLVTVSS
VL: SYELTQPPSVSVSPGQTASITCSGDKLGDKYASWYQQKPGQSPVLVIYQDSKRPSGIPERFSGSNSGNTATLTISGTQAEDEADYYCSTYTVTSSVVVFGGGTKLTVL
notes: wildtype human IgG1 and kappa or lambda constant regions
An EC50 [17] of 1 to 20 nM and an EC50 [18] of less than 1 nM were found for B7 in this work.

B8: C-011 (IgG1 format) (antibody, V domains shown)
VH: QVQLVQSGAEVKKPGSSVKVSCKASGGTFSSYAISWVRQAPGQGLEWMGGIIPIFGTANYAQKFQGRVTITADESTSTAYMELSSLRSEDTAVYYCARHSTPSFLQYWGQGTLVTVSS
VL: SYELTQPPSVSVSPGQTASITCSGDKLGDKYASWYQQKPGQSPVLVIYQDSKRPSGIPERFSGSNSGNTATLTISGTQAEDEADYYCAVYPAHASARWVFGGGTKLTVL
notes: as for B7
An EC50 [17] of less than 1 nM and an EC50 [18] of less than 1 nM were found for B8 in this work.
